From US20220211817A1, “CONTROLLED-RELEASE CNP AGONISTS WITH LOW NPR-C BINDING” (ASCENDIS PHARMA GROWTH DISORDERS A/S, priority 2016, published 2022)
Where two headings read alike, the source gives them in different places. Bridge positions count the residues as written; N and C are the ends. Side chains are listed from the residue outwards. Ends that are not written are not given here. reversible linker = not defined here

What was measured:
[1] = after iv administration; cited from earlier work
healthy volunteers [2] = conditions: CNP injection; cited from earlier work
Male Crl:CD1(ICR) mice = experiment: Evaluation of cardiovascular effects in the conscious telemetered mouse (subcutaneous administration); type: in vivo; conditions: 800 μg CNP-38 (eq)/kg subcutaneous; for change in MAP at the 5, 15, and 30 min post dose sampling time points (in words): compared to predose
Method: Male Crl:CD1(ICR) mice (age range 8-13 weeks and body weight range 27.3-35.6 g at start of dosing) were surgically implanted with a TA11PA-C10 telemetry transmitter (Data Sciences International (DSI)) in the carotid artery. The body of the transmitter was placed subcutaneously in the lateral flank of the mouse. The mice were dosed subcutaneously in a latin square crossover design with at least 72 hours between dosing occasions. […] At least four mice were included at each dose level. […] Each time point was presented as the average value of five minute's recording prior to the time point. The monitoring period was selected to cover exposure to the test items both prior to and after Tmax.

[3] = Pharmacokinetic profile of conjugate 11i after subcutaneous single-dose administration to cynomolgus monkeys; conditions: single s.c. 40 μg CNP-38 eq/kg
Method: As internal standard deuterated CNP-38 conjugate was used.
200 μL of the supernatant were transferred into a new well-plate and evaporated to dryness (under a gentle nitrogen stream at 35° C.). […] After 3 hours incubation at 37° C. […] 10 μL were injected into the UHPLC-MS system.

[4] = cynomolgus monkey, in vivo, sc
[5] = Pharmacokinetic study of transient conjugates 10f and 11i in cynomolgus monkeys; conditions: single subcutaneous, 0.146 mg CNP-38 eq/kg
recombinant human NEP = biological target: T1, recombinant human NEP (Homo sapiens, UniProt P08473); experiment: Digest of CNP variants by Neutral Endopeptidase in vitro; type: in vitro ADME; conditions: 100 μg CNP equivalents/mL, pH 7.4, 37° C., up to 4 days, normalized to mean CNP-34 or CNP-38 half life
T1 construct: purchased Enzo Life Sciences GmbH, Lörrach, Germany
Excerpt: Samples were taken at different time intervals. […] The resulting reaction products were assigned using HPLC-MS.

[6] = Pharmacokinetic study of permanent conjugate 12 g in cynomolgus monkeys; type: in vivo
Method: As internal standard deuterated CNP-38 peptide was used.
After 4 hours incubation at 37° C. […] The eluates were transferred into vials. 10 μL were injected into the UPLC-MS system.

[7] = Pharmacokinetic profile of CNP-38 after subcutaneous single-dose administration to cynomolgus monkeys; conditions: single s.c. 40 μg/kg
Method: This study was performed in order to test the pharmacokinetics of CNP-38 after subcutaneous (s.c.) administration in cynomolgus monkeys. Three male monkeys (2-4 years old, 3-5 kg) received a single s.c. injection at a dose of 40 μg/kg of CNP-38.
Method: Plasma levels of CNP were analysed using a commercially available competitive radioimmuno-assay (RK-012-03, Phoenix Pharmaceuticals, CA). The assay was applied essentially as described by the manufacturer.
A few changes to the supplied assay protocol were made. These changes included using in-house CNP calibrant and QC samples to secure consistency between assay runs.

healthy volunteers [8] = conditions: Phase 1 study; cited from earlier work

T1 sequence (P08473 whole entry): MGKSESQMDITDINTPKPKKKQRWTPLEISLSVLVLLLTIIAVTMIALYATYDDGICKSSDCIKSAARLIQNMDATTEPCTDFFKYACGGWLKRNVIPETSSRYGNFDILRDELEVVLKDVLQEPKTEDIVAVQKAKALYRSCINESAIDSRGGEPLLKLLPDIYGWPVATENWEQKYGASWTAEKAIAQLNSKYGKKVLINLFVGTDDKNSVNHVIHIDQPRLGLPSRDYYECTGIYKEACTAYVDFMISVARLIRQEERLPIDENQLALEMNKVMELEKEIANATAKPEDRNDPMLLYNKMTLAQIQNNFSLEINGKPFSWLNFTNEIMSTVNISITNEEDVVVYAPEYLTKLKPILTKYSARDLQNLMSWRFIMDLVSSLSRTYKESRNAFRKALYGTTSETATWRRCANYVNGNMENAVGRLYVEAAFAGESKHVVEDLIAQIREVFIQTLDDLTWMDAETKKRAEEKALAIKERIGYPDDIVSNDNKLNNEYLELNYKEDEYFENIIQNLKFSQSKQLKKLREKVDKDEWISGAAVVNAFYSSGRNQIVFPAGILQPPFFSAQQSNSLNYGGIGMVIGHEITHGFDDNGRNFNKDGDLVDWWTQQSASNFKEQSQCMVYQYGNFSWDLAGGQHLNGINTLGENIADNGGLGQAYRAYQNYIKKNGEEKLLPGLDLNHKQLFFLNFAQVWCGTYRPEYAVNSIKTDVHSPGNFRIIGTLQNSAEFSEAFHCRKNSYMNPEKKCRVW

## CNP: C-type natriuretic peptide as named in the background section
[1]
  half-life: 2 min
Healthy volunteers [2]
  effect on blood pressure and heart rate: transient but significant decrease in both systolic and diastolic blood pressure with a significant increase in heart rate

## Reversible Lys26 CNP-38 PEG4×10 kDa Conjugate (LQEHPNARKYKGANKKGLSKGCFGLK([reversible linker-PEG 4×10 kDa])LDRIGSMSGLGC; ends and bridges not checked; also: reversible linker structure not given here; UniProt P23582 89-126, looked up, fragment) [Compound 11i]
Male Crl:CD1(ICR) mice
  HR (heart rate): not impacted
  MAP 5 min post dose (mean ± SD): 122.8 ± 5.9 mmHg
  MAP 15 min post dose (mean ± SD): 121.5 ± 7.5 mmHg
  MAP 30 min post dose (mean ± SD): 111.5 ± 13.7 mmHg
  blood pressure (conclusion): did not decrease blood pressure
  change in MAP at the 5, 15, and 30 min post dose sampling time points (in words): same physiological increase in MAP
[3]
  tolerability: well tolerated
[4]
  dose site reactions: No dose site reactions were observed
  terminal half life: 72 to 96 h
[5]
  tolerability of dose administrations: well tolerated

## Permanent Lys26 CNP-38 PEG 5 kDa Conjugate (LQEHPNARKYKGANKKGLSKGCFGLK(PEG 5 kDa)LDRIGSMSGLGC; cysteine pairing not given here; UniProt P23582 89-126, looked up, fragment) [Compound 19e]
Recombinant human NEP
  half life norm.: 62.76 h

## Permanent Lys26 CNP-38 PEG4×10 kDa Conjugate [Compound 12g]
[6]; cynomolgus monkey, in vivo
  bioavailability: ca. 50%
  dose site reactions: No dose site reactions were observed
[6]; cynomolgus monkey, in vivo, iv
  half life time of CNP-38 content: approx. 24 h
[6]; single intravenous or subcutaneous, 0.146 mg CNP-38 eq/kg
  tolerability of dose administrations: well tolerated
Recombinant human NEP
  half life norm.: Almost no proteolysis

## Permanent Lys22 CNP-34 PEG 5 kDa Conjugate [Compound 18e]
Recombinant human NEP
  half life norm.: 38.87 h

## CC[C@H](C)[C@@H]1NC(=O)[C@H](CCCNC(=N)N)NC(=O)[C@H](CC(=O)O)NC(=O)[C@H](CC(C)C)NC(=O)[C@H](CCCCN)NC(=O)[C@H](CC(C)C)NC(=O)CNC(=O)[C@H](Cc2ccccc2)NC(=O)[C@@H](NC(=O)CNC(=O)[C@H](CCCCN)NC(=O)[C@H](CO)NC(=O)[C@H](CC(C)C)NC(=O)CNC(=O)[C@H](CCCCN)NC(=O)[C@H](CCCCN)NC(=O)[C@H](CC(N)=O)NC(=O)[C@H](C)NC(=O)CNC(=O)[C@H](CCCCN)NC(=O)[C@H](Cc2ccc(O)cc2)NC(=O)[C@H](CCCCN)NC(=O)[C@H](CCCNC(=N)N)NC(=O)[C@H](C)NC(=O)[C@H](CC(N)=O)NC(=O)[C@@H]2CCCN2C(=O)[C@H](Cc2c[nH]cn2)NC(=O)[C@H](CCC(=O)O)NC(=O)[C@H](CCC(N)=O)NC(=O)[C@@H](N)CC(C)C)CSSC[C@@H](C(=O)O)NC(=O)CNC(=O)[C@H](CC(C)C)NC(=O)CNC(=O)[C@H](CO)NC(=O)[C@H](CCSC)NC(=O)[C@H](CO)NC(=O)CNC1=O [CNP-38, reference compound]
Male Crl:CD1(ICR) mice
  HR (heart rate): not impacted
  MAP 5 min post dose (mean ± SD): 102.0 ± 7.5 mmHg
  MAP 15 min post dose (mean ± SD): 89.5 ± 29.4 mmHg
  MAP 30 min post dose (mean ± SD): 99.5 ± 25.2 mmHg
  change in MAP at the 5, 15, and 30 min post dose sampling time points (in words): significant decrease in MAP
Male Crl:CD1(ICR) mice; predose
  MAP predose (mean ± SD): 106.8 ± 13.4 mmHg
[7]
  tolerability: well tolerated

## BMN-111: a CNP variant with increased NEP resistance in development for the treatment of achondroplasia (PGQEHPNARKYKGANKKGLSKGCFGLKLDRIGSMSGLGC; disulfide 23-39; chains of the INN, looked up)
Healthy volunteers [8]
  haemodynamic effect: mild hypotension

## Permanent Lys16 CNP-34 PEG 5 kDa Conjugate (PNARKYKGANKKGLSK(PEG 5 kDa)GCFGLKLDRIGSMSGLGC; cysteine pairing not given here; UniProt P23582 93-126, looked up, fragment) [Compound 17e]
Recombinant human NEP
  half life norm.: 54.23 h

## Reversible Lys26 CNP-38 PEG2×20 kDa Conjugate (LQEHPNARKYKGANKKGLSKGCFGLKLDRIGSMSGLGC; not fully specified (residue 26); ends and bridges not checked; also: reversible linker structure not given here; UniProt P23582 89-126, looked up, fragment) [Compound 10f]
[4]
  dose site reactions: No dose site reactions were observed
[5]
  tolerability of dose administrations: well tolerated

## Permanent N-Terminal CNP-38 PEG 5 kDa Conjugate ({PEG 5 kDa}-LQEHPNARKYKGANKKGLSKGCFGLKLDRIGSMSGLGC; disulfide 22-38; also: permanent PEG attachment; UniProt P23582 89-126, looked up, fragment) [Compound 15e]
Recombinant human NEP
  half life norm.: Almost no proteolysis
